One block for each molecule: values may come before it.
Key:
[1] = system: HDAC4; details: cited from earlier work
Text: In contrast to other HDACs, class IIa HDACs have low deacetylase activity ([33]). However, their HDAC domains are directly involved in the transcriptional repression of several genes by forming a supra-complex with the NCoR/SMRT-HDAC3 complex ([16],[17]).

[2] = system: HDAC4c D759Y; details: HDAC4c mutant versus wild-type; cited from earlier work
Text: Next, we analyzed the mutational effects of SM1 mutants by OPTHiS screening (Figure 5A). […] In the peptide-complex structures, G+1, S+2 and T+4 residues on both peptides interact, directly or through water molecules, with residues on the cleft wall of the structural zinc-binding subdomain (Figure 3E). Mutations in this peptide region (G+1R, S+2D and T+4N/T+4A) altered the binding affin ... || Among the seven HDACs whose catalytic domain structures have been reported, HDAC4c is unique in that it has an open conformation when it binds to non-peptide molecules. In agreement with this, mutations at the ^+1GSI^+3 residues of two motifs and R+9 residue of the SM1 lead to a loss of its binding activity to HDAC4c/-5c (Figures 1 and 5). The class IIa HDAC-specific residues (D759, H842, and F871), which are located at the cleft to and entrance to the catalytic zinc-binding site, interact directly or indirectly with these residues of bound peptides (Figure 3D and E). Further, HDAC4c mutants o ...

[3] = system: HDAC4c; assay: Interaction with HDAC4c (yeast two-hybrid, GST pull-down, BiFC); details: for interaction with HDAC4c, domain mapping: yeast two-hybrid only, strain EGY48, LexA-fused HDAC4c and SRD3c deletion constructs, liquid β-galactosidase assay
[4] = system: HDAC5c; assay: Interaction with HDAC5c (yeast two-hybrid, GST pull-down, BiFC); details: for interaction with HDAC5c, domain mapping: yeast two-hybrid only, strain EGY48, LexA-fused HDAC5c and SRD3c deletion constructs, liquid β-galactosidase assay

Molecule: SMRT: silencing mediator for retinoid and thyroid receptor, general corepressor
- change in deacetylase activity of HDAC4 in the presence of SMRT [1]: lack of noticeable changes in the deacetylase activity of HDAC4

Molecule: GSITQGIPR [SM1, conserved GSI motif 1361-1369 of SRD3c, …]
- binding affinity to HDAC4c D759Y [2]: abrogated interactions

- binding to HDAC4c ([3]; yeast two-hybrid (β-galactosidase), GST pull-down, BiFC in HEK293 cells, result in words): marginal interaction
- binding to HDAC5c ([4]; yeast two-hybrid (β-galactosidase), in vitro GST pull-down, BiFC in HEK293 cells, result in words): marginal interaction
B1: SRD3n: N-terminal region of SRD3 (R1128–E1289) (protein, UniProt Q9Y618 1128-1289, looked up, fragment)
chain: GMSVQLHVPYSEHAKAPVGPVTMGLPLPMDPKKLAPFSGVKQEQLSPRGQAGPPESLGVPTAQEASVLRGTALGSVPGGSITKGIPSTRVPSDSAITYRGSITHGTPADVLYKGTITRIIGEDSPSRLDRGREDSLPKGHVIYEGKKGHVLSYEGGMSVTQC

B2: I-A: SRD3c deletion construct K1316–G1390 (protein, UniProt Q9Y618 1316-1390, looked up, fragment)
chain: GRVGRAISSASIEGLMGRAIPPERHSPHHLKEQHHIRGSITQGIPRSYVEAQEDYLRREAKLLKREGTPPPPPPS
- interaction with HDAC4c, domain mapping [3]: independently interacted with HDAC4c/-5c
- interaction with HDAC5c, domain mapping [4]: independently interacted with HDAC4c/-5c

B3: II: SRD3c deletion construct P1396–S1515 (protein, UniProt Q9Y618 1396-1515, looked up, fragment)
chain: AYKTQALGPLKLKPAHEGLVATVKEAGRSIHEIPREELRHTPELPLAPRPLKEGSITQGTPLKYDTGASTTGSKKHDVRSLIGSPGRTFPPVHPLDVMADARALERACYEESLKSRPGTA
- interaction with HDAC4c, domain mapping [3]: independently interacted with HDAC4c/-5c, although the binding strength of region II was relatively weaker than that of region I-A
- interaction with HDAC5c, domain mapping [4]: independently interacted with HDAC4c/-5c, although the binding strength of region II was relatively weaker than that of region I-A

— publication PMC6294515, “Structural basis of the specific interaction of SMRT corepressor with histone deacetylase 4” (Nucleic Acids Research, 2018)
